Columns and labels:
Experiment in all cases: cell-based or functional assay
[1] = biological target: HIV-1 Env gp120 of virus CH058, on infected cells (HIV-1)
[2] = biological target: HIV-1 Env gp120 of virus WITO, on infected cells (HIV-1)
[3] = biological target: HIV-1 Env of clone CH058 (HIV-1)
[4] = biological target: HIV-1 Env of clone CH106 (HIV-1)
[5] = biological target: HIV-1 Env of clone WITO (HIV-1)
[6] = biological target: HIV-1 Env of isolate 8106 (HIV-1)
[7] = biological target: HIV-1 Env of isolate 8318 (HIV-1)
[8] = biological target: HIV-1 Env of isolate 92HT593 (HIV-1)
[9] = biological target: HIV-1 Env of isolate 92US657 (HIV-1)
[10] = biological target: HIV-1 Env of isolate 92US727 (HIV-1)
[11] = biological target: HIV-1 Env of strain BaL (HIV-1)

PGT-121.60 (antibody)
Maximum percent of HIV-infected cells killed; PBMC-derived effector cells; donor 1003277; virus CHO58 [1]: 66.2% | Maximum percent of HIV-infected cells killed; PBMC-derived effector cells; donor 1004344; virus CHO58 [1]: 82.8% | Maximum percent of HIV-infected cells killed; tonsil-derived effector cells; donor 1003277; virus CHO58 [1]: 10.9% | Maximum percent of HIV-infected cells killed; tonsil-derived effector cells; donor 1004344; virus CHO58 [1]: 0% | Potency (IC50) of killing HIV-infected cells; PBMC-derived effector cells; donor 1003277; virus CHO58 [1]: 0.706 µg/mL | Potency (IC50) of killing HIV-infected cells; PBMC-derived effector cells; donor 1004344; virus CHO58 [1]: 0.094 µg/mL | Potency (IC50) of killing HIV-infected cells; tonsil-derived effector cells; donor 1003277; virus CHO58 [1]: > 10 µg/mL | Potency (IC50) of killing HIV-infected cells; tonsil-derived effector cells; donor 1004344; virus CHO58 [1]: > 10 µg/mL | killing EC50; HIV-infected CD4 T cells (WITO); effector cells Eff Memory CD4 [2]: > 10 µg/mL | killing EC50; HIV-infected CD4 T cells (WITO); effector cells Memory CD4 [2]: > 10 µg/mL | killing EC50; HIV-infected CD4 T cells (WITO); effector cells Memory CD8 [2]: > 10 µg/mL | killing EC50; HIV-infected CD4 T cells (WITO); effector cells γ Δ CD4 [2]: 0.36 µg/mL | killing EC50; HIV-infected CEM-NKr-CCR5-LucR CD4 T cells; PBMC donor 4176; virus WITO [2]: > 100 µg/mL | killing EC50; HIV-infected CEM-NKr-CCR5-LucR CD4 T cells; PBMC donor 4288; virus WITO [2]: 0.767 µg/mL | killing Emax; HIV-infected CD4 T cells (WITO); effector cells Eff Memory CD4 [2]: 0% | killing Emax; HIV-infected CD4 T cells (WITO); effector cells Memory CD4 [2]: 9% | killing Emax; HIV-infected CD4 T cells (WITO); effector cells Memory CD8 [2]: 9% | killing Emax; HIV-infected CD4 T cells (WITO); effector cells γ Δ CD4 [2]: 18% | killing Emax; HIV-infected CEM-NKr-CCR5-LucR CD4 T cells; PBMC donor 4176; virus WITO [2]: 0% | killing Emax; HIV-infected CEM-NKr-CCR5-LucR CD4 T cells; PBMC donor 4288; virus WITO [2]: 46% | IC50 (neutralization, CEM.NKr.CCR5.LucR based assay) [3]: 0.063 µg/mL | IC50 (neutralization, CEM.NKr.CCR5.LucR based assay) [4]: > 100 µg/mL | IC50 (neutralization, CEM.NKr.CCR5.LucR based assay) [5]: 1.05 µg/mL | IC50 (neutralization, CEM.NKr.CCR5.LucR based assay) [6]: 0.091 µg/mL | IC50 (neutralization, CEM.NKr.CCR5.LucR based assay) [7]: 0.048 µg/mL | IC50 (neutralization, CEM.NKr.CCR5.LucR based assay) [8]: 0.024 µg/mL | IC50 (neutralization, CEM.NKr.CCR5.LucR based assay) [9]: 0.168 µg/mL | IC50 (neutralization, CEM.NKr.CCR5.LucR based assay) [10]: 0.013 µg/mL | IC50 (neutralization, CEM.NKr.CCR5.LucR based assay) [11]: 0.015 µg/mL
